Drawing on patent US20050255547A1, this text covers inhibition of FasL-induced apoptosis of A20 cells (IC50) for three substances.

A value given as a limit tells only on which side of the number the result lay.

The target of this assay is oligomerized FasL. Kind of assay: cell-based or functional assay.
The substance Fas-COMP (receptor) showed an inhibition of FasL-induced apoptosis of A20 cells (IC50) of 0.035 µg/mL.
Turning to Fas-Fc (Fc fusion), the inhibition of FasL-induced apoptosis of A20 cells (IC50) is above 1 µg/mL.
In the case of FasR:mACRP30 (receptor) it was 0.08 µg/mL.
